Data reported in US12006356 (JUNO THERAPEUTICS, dated 2024).

Legend:
human CCT5 = biological target: T1, human CCT5 (human, UniProt P48643 2-541, limits assumed); assay: immunoprecipitation from cytosolic and plasma membrane lysate fractions, Western blot for CCT5
T1 construct: also called Chaperonin Containing TCP1 Subunit 5; TRiC protein CCT5
From the text: Cytosolic and plasma membrane (surface) lysate preparations of SK-BR-3 and OvCar3 cells were probed by Western blot for CCT5 after immunoprecipitation with the antibody identified Example 1, or a negative control antibody, Panitumumab.

PRPF8 = PRPF8 (UniProt Q6P2Q9 2-2335); assay: immunoprecipitation from OvCar8, SKBR3 and MIAPACA2 lysates, Western blot with rabbit polyclonal antibodies
Procedure: (§1) A. Immunoprecipitation and Mass Spectrometry to Identify Candidate Target Proteins Whole cell lysates of exemplary ovarian or leukemia cell lines were used for immunoprecipitation experiments with the antibody identified in Example 1. The identified antibody was covalently conjugated to magnetic epoxy beads, and 10 µg of bead-bound antibody were incubated with 1-2 mL whole cell lysate (at 1 mg protein/mL lysate) of ovarian carcinoma cell line (OvCar8) or acute myeloid leukemia cell line (SKM1). The cell lysates were also incubated with control antibodies known to bind the cell line, or beads alone. The immunoprecipitates were then washed and eluted first with low pH, and second with a cationic detergent elution buffer. The eluates were resolved by SDS-PAGE and stained with a protein stain to visualize the bands.
(§2) The immunoprecipitation with the identified antibody was repeated, with OvCar8 cells and also SKBR3 (breast cancer) and MIAPACA2 (pancreas carcinoma) cell lines. The eluates were resolved by SDS-PAGE, transferred for Western blot analysis using rabbit polyclonal antibodies specific to the top 10 candidate proteins identified in part A: RalGapa2, RalGapB, SPTAN1, IMPDH2, DNAJC13, SPTAN1, SNRNP200, PRPF8, CCT4, and CCT2. CCT2 and CCT4 were specifically detected in the immunoprecipitates from all assessed cancer cell lines. No bands corresponding to the other proteins were detected. CCT2 and CCT4 are both part of the TCP1 ring complex (TRiC).

RalGapB = biological target: T2, RalGapB (UniProt Q86X10 1-1494, limits assumed); assay: as above
T2 sequence (looked up): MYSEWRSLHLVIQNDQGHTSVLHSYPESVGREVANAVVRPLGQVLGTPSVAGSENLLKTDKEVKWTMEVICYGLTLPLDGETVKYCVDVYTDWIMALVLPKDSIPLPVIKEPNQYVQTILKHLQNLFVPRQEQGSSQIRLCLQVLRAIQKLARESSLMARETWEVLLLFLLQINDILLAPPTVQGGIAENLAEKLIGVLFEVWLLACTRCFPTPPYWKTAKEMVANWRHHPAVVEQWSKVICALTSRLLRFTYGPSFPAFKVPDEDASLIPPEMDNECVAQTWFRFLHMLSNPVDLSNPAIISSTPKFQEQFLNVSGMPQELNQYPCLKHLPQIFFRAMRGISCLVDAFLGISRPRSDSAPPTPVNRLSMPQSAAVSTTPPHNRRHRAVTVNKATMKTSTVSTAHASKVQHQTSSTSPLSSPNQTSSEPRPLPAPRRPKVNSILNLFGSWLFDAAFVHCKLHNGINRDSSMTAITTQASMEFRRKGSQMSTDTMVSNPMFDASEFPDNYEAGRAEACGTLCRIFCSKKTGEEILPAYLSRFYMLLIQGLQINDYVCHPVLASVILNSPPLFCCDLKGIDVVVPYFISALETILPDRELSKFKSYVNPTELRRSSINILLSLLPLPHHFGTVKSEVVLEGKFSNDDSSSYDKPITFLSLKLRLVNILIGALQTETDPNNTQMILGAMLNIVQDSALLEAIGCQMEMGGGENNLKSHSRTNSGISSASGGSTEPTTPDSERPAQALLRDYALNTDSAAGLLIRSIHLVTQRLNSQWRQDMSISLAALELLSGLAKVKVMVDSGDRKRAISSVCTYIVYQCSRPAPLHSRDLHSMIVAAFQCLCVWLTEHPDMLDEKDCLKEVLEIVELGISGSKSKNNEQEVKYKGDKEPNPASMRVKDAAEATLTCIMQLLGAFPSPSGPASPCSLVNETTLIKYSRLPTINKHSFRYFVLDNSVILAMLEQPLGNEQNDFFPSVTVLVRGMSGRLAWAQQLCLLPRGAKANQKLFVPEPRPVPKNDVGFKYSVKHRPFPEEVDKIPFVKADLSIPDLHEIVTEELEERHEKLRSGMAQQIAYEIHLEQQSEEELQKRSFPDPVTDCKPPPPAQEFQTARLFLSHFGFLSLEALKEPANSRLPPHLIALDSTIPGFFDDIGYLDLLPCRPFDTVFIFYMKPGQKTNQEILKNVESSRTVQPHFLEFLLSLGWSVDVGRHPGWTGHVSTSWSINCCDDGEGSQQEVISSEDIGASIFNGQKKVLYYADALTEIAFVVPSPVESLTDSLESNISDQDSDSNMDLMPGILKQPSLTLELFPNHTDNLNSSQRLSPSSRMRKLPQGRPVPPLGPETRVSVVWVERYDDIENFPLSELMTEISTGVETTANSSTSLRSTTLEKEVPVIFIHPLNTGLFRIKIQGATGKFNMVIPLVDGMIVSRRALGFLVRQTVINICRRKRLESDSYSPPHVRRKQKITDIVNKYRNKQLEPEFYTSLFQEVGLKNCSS
Procedure: as §1, §2

DNAJC13 = DNAJC13 (UniProt O75165 1-2243); assay: as above
Procedure: as §1, §2

SPTAN1 = SPTAN1 (UniProt Q13813 1-2472, limits assumed); assay: as above
Procedure: as §1, §2

SNRNP200 = SNRNP200 (UniProt O75643 1-2136, limits assumed); assay: as above
Procedure: as §1, §2

RalGapa2 = RalGapa2 (UniProt Q2PPJ7 1-1873, limits assumed); assay: as above
Procedure: as §1, §2

murine CCT5 = biological target: T3, murine CCT5 (mouse, UniProt P80316 2-541); assay: immunoprecipitation and Western blot, B16-F10 cells
T3 construct: Endogenous CCT5 in B16-F10 melanoma cells; also called mouse CCT5
T3 sequence (P80316 2-541 limits assumed): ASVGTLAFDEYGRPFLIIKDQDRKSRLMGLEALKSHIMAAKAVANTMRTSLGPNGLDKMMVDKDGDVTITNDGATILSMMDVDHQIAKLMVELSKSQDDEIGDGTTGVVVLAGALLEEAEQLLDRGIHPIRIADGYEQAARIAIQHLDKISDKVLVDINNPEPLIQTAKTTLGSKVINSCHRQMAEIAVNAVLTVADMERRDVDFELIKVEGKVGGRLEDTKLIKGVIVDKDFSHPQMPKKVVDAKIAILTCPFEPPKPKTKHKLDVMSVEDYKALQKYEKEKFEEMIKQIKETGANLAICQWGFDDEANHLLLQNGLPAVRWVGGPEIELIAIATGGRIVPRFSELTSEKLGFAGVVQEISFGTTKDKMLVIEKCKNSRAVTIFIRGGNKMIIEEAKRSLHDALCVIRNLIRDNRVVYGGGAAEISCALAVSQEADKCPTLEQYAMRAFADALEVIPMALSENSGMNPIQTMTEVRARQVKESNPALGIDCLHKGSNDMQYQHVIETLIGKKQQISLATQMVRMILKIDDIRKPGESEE

Sequence of DNAJC13 (O75165 whole entry): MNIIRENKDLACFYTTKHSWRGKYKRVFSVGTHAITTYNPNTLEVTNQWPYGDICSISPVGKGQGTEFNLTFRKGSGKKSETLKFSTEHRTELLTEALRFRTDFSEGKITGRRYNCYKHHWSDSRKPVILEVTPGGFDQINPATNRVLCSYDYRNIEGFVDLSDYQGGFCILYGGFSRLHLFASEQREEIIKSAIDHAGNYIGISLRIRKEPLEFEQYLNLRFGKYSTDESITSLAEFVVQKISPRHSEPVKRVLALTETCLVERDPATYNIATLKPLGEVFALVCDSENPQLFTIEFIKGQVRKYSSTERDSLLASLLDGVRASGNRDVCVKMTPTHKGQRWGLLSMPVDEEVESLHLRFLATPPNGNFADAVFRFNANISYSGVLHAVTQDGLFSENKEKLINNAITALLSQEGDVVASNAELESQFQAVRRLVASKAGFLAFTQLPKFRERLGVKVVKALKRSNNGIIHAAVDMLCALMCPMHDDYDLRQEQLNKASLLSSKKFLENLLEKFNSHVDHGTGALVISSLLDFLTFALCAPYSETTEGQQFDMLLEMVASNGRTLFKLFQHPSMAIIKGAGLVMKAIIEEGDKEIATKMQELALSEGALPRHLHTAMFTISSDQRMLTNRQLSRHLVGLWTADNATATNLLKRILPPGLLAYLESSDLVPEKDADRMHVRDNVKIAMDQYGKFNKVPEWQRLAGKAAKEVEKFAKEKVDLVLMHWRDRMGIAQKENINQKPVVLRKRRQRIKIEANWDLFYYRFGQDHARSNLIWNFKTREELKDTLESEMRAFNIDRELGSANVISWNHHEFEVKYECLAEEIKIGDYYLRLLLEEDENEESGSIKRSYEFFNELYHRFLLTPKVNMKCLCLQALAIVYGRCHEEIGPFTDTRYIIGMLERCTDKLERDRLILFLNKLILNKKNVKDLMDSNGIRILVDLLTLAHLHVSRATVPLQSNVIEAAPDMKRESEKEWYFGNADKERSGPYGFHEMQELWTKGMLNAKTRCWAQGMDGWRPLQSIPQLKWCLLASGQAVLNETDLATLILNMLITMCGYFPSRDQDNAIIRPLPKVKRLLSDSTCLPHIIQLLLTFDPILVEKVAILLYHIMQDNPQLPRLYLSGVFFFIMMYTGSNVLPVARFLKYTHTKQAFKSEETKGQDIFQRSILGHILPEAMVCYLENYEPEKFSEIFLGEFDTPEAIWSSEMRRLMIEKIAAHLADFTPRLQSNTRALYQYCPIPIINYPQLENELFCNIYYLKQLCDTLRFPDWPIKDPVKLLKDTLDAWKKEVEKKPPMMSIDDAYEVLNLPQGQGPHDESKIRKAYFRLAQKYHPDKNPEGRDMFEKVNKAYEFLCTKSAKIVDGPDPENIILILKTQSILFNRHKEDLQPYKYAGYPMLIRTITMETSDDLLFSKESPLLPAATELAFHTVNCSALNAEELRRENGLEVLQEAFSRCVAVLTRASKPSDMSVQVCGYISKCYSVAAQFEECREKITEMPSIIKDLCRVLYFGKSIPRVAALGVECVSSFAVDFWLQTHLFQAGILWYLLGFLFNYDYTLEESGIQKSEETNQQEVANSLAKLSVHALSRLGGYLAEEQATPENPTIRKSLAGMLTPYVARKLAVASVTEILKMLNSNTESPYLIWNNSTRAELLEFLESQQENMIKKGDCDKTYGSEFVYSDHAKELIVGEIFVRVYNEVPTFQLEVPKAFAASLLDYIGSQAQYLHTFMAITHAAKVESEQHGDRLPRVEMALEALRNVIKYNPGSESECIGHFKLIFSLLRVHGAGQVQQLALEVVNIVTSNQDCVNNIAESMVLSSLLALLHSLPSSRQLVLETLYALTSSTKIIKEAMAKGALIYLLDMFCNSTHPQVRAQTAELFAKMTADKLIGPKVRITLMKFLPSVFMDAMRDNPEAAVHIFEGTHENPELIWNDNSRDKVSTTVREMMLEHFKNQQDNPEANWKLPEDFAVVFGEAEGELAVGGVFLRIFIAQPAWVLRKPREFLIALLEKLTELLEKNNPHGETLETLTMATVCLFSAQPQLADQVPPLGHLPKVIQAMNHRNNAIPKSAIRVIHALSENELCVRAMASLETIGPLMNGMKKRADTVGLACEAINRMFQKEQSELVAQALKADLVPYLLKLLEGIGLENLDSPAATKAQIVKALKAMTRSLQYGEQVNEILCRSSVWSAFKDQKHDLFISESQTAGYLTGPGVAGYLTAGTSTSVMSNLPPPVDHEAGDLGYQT
Sequence of RalGapa2 (Q2PPJ7 whole entry): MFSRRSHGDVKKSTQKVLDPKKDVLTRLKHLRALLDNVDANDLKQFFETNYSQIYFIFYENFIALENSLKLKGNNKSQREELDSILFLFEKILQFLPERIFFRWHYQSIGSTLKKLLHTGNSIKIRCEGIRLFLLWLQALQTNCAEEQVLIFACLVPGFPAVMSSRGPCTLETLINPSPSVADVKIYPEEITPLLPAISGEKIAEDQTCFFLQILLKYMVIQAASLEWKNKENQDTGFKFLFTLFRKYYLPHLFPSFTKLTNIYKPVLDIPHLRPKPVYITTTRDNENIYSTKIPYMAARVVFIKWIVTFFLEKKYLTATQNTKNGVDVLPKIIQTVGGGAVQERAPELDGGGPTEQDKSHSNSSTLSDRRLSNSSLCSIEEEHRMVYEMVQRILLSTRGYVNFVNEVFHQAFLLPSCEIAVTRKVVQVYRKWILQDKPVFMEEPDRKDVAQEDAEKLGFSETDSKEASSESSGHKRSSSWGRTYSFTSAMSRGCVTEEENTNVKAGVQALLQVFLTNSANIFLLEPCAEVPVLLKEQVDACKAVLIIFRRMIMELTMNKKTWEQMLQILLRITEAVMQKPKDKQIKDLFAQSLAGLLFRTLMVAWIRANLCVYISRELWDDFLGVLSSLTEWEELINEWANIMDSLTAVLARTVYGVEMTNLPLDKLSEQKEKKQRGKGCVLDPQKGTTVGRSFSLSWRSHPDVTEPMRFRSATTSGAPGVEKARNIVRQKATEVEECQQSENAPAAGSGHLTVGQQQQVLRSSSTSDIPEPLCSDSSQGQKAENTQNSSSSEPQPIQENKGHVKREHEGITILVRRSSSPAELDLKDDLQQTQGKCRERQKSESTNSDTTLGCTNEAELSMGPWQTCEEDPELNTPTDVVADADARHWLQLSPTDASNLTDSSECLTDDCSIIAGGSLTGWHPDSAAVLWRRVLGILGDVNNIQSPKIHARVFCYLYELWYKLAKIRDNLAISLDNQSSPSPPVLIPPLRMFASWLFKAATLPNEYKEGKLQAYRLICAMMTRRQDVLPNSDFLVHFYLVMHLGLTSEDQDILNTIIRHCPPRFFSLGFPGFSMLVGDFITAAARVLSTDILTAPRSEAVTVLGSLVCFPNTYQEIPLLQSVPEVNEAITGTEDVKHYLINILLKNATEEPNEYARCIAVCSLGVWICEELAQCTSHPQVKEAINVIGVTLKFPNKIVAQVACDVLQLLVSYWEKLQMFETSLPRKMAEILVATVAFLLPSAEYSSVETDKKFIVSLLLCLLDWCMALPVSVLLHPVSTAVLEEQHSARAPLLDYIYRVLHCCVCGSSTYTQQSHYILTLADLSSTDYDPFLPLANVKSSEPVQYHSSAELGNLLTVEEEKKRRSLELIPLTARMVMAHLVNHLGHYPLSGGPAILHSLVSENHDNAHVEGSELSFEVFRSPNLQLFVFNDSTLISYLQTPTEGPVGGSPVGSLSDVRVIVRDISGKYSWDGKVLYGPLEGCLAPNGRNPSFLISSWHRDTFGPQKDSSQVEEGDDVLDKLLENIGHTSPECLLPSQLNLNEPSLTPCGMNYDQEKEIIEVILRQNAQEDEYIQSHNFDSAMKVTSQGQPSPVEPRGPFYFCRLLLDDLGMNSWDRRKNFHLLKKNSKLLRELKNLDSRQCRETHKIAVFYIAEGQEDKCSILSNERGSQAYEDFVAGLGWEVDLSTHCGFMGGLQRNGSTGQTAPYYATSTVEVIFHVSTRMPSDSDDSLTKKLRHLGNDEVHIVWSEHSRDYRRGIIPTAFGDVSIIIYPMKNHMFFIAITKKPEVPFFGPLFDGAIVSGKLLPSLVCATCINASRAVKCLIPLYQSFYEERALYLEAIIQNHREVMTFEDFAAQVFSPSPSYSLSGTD

B1: exemplary anti-CCT5 antibody identified in Example 1 (antibody, V domains shown)
VH: EVQLVESGGGLVQPGGSLRLSCAASGFTFSSYSMNWVRQAPGKGLEWVSYISSSSSTIYYADSVKGRFTISRDNAKNSLYLQMNSLRDEDTAVYYCARDFKGDCSSTSCYRGGYYYYYGMDVWGQGTTVTVSS
VL: SYELTQPPSVSVSPGQTASITCFGDQLGDKYVSWYQKKPGQSPVLVIYQDANRPSGIPERFSGSNSGNTATLTIRGTQNLDEADYYCQTWGTTTALFGGGTKLTVL
notes: For immunoprecipitation it was covalently conjugated to magnetic epoxy beads; also called the identified antibody
B1: binds (human CCT5); no binding (PRPF8); no binding (RalGapB). B1: no binding (DNAJC13); no binding (SPTAN1); no binding (SNRNP200). B1: no binding (RalGapa2); binds (murine CCT5).
